# Reference: patent US20190147972A1, “BIOMOLECULE DESIGN MODEL AND USES THEREOF” (University of Notre Dame du Lac, priority 2016, published 2019)
# How the values were obtained:
# DMF5 TCR = assay: SPR binding of MART126(27L)-35 peptide variants/HLA-A2 to DMF5 TCR; conditions: ELA peptide substitution vs native peptide, SPR steady state, 25° C.
# Method: Briefly, the TCR a and b chains, the HLA-A2 heavy chain, and b2-microglobulin (b2m) were generated in Escherichia coli as inclusion bodies, which were isolated and denatured in 8 M urea. TCR a and b chains were diluted in TCR refolding buffer (50 mM Tris (pH 8), 2 mM EDTA, 2.5 M urea, 9.6 mM cysteamine, 5.5 mM cystamine, 0.2 mM PMSF) at a 1:1 ratio. HLA-A2 and b2m were diluted in MHC refolding buffer (100 mM Tris (pH 8), 2 mM EDTA, 400 mM L-arginine, 6.3 mM cysteamine, 3.7 mM cystamine, 0.2 mM PMSF) at a 1:1 ratio in the presence of excess peptide. TCR and pMHC complexes were incubated for 24 h at 4° C. Afterward, complexes were desalted by dialysis at 4° C. and room temperature respectively, then purified by anion exchange followed by size-exclusion chromatography. Refolded protein absorptions at 280 nm were measured spectroscopically and concentrations determined with appropriate extinction coefficients. Mutations in TCR a and b chains were generated by whole-plasmid mutagenesis and confirmed by sequencing. Peptides were synthesized and purified commercially.
# Surface plasmon resonance: Surface plasmon resonance experiments were performed with a Biacore 3000 instrument using CMS sensor chips as previously described^15. In all studies, TCR was immobilized to the sensor chip via standard amine coupling and pMHC complex was injected as analyte. Studies were performed at 25° C. in 20 mM HEPES (pH 7.4), 150 mM NaCl, 0.005% Nonidet P-20. All studies were steady-state experiments measuring RU vs. concentration of injected analyte, and were performed with TCRs coupled onto the sensor chip at 400-2000 response units. Injected pMHC spanned a concentration range of 0.1-150 μM at flow rates of 5 μl/min. Data were processed with BioEvaluation 4.1 and fit using a 1:1 binding model utilizing MATLAB 2015b.
# Next, eight MART126(27L)-35 peptide variants with a broad range of complex scores were selected for experimental testing with DMF5. A peptide was also examined with a non-standard sarcosine (N-methyl glycine) substituted for Gly6 of the peptide to help test the implications of treating structured water explicitly in the DMF5 interface as discussed above and shown in FIG. 5.
# [1] = biological target: MART126(27L)-35 pE1F/HLA-A2 (UniProt Q16655); assay: SPR steady state (Biacore 3000), TCR immobilised, pMHC injected; relative to the unsubstituted ELA peptide
# [2] = biological target: MART126(27L)-35 pG6-Sarc/HLA-A2 (UniProt Q16655); assay: as above
# [3] = biological target: MART126(27L)-35 pE1D/HLA-A2 (UniProt Q16655); assay: as above
# [4] = biological target: MART126(27L)-35 pI5E/HLA-A2 (UniProt Q16655); assay: as above
# [5] = biological target: MART126(27L)-35 pT9A/HLA-A2 (UniProt Q16655); assay: as above
# [6] = biological target: MART126(27L)-35 pE1A/HLA-A2 (UniProt Q16655); assay: as above
# [7] = biological target: MART126(27L)-35 pE1Q/HLA-A2 (UniProt Q16655); assay: as above
# [8] = biological target: MART126(27L)-35 pG6-Sarc/HLA-A2 (UniProt Q16655); assay: SPR steady state, TCR immobilised, pMHC injected
# MART126(27L)-35/HLA-A2 = MART126(27L)-35/HLA-A2 (UniProt Q16655); assay: SPR steady state (Biacore 3000), TCR immobilised, pMHC injected; relative to wild type
substance,measurement,setting,value
"PE1Q: MART126(27L)-35 (ELA) peptide with E1Q substitution, presented by HLA-A2 (QLAGIGILTV; MART-1 26-35 peptide; UniProt Q16655 26-35, looked up, variant A27L E26Q)",ΔΔG°,DMF5 TCR,1.0 kcal/mol
"pI5E: MART126(27L)-35 (ELA) peptide with I5E substitution, presented by HLA-A2 (ELAGEGILTV; MART-1 26-35 peptide; UniProt Q16655 26-35, looked up, variant A27L I30E)",ΔΔG°,DMF5 TCR,3.07 kcal/mol
"DMF5 TCR (wild type, soluble)",ΔΔG°,[1],2.26 kcal/mol
same,ΔΔG°,[2],-0.58 kcal/mol
same,ΔΔG°,[3],1.3 kcal/mol
same,ΔΔG°,[4],3.07 kcal/mol
same,ΔΔG°,[5],1.6 kcal/mol
same,ΔΔG°,[6],0.06 kcal/mol
same,ΔΔG°,[7],1 kcal/mol
same,fold affinity enhancement over the unsubstituted peptide,[8],3 fold
DMF5 TCR T54αI,ΔΔG°,MART126(27L)-35/HLA-A2,0.33 kcal/mol
"pE1D: MART126(27L)-35 (ELA) peptide with E1D substitution, presented by HLA-A2 (DLAGIGILTV; MART-1 26-35 peptide; UniProt Q16655 26-35, looked up, variant A27L E26D)",ΔΔG°,DMF5 TCR,1.3 kcal/mol
"pT9W: MART126(27L)-35 (ELA) peptide with T9W substitution, presented by HLA-A2 (ELAGIGILWV; MART-1 26-35 peptide; UniProt Q16655 26-35, looked up, variant A27L T34W)",ΔΔG°,DMF5 TCR,>3 kcal/mol
"pE1F: MART126(27L)-35 (ELA) peptide with E1F substitution, presented by HLA-A2 (FLAGIGILTV; MART-1 26-35 peptide; UniProt Q16655 26-35, looked up, variant A27L E26F)",ΔΔG°,DMF5 TCR,2.26 kcal/mol
